The text below walks through data of paper PMC5050560.

First the molecules themselves.
B1: Pr101 (dsDNA)
DNA 1: GTACTATACAGCCTGGAGTAG
DNA 2: CTACTCCAGGCTGTATAGTAC
B2: Pr47 (dsDNA)
DNA 1: TCTTGACCTCGATAAGTGTCGTAAGTCAAGGGTAATTTATATATCAGTGAAAAATAATTACATTTAATCTAATGTTTTTAGAGAGGAGGATGCTATGTTA
DNA 2: TAACATAGCATCCTCCTCTCTAAAAACATTAGATTAAATGTAATTATTTTTCACTGATATATAAATTACCCTTGACTTACGACACTTATCGAGGTCAAGA
B3: Pr114 (dsDNA)
DNA 1: ATATTTTATAATTAATAATTGTAATGCCGCACAGTAAAGGTTTAAATCTTCAAATGAAGTACCTTGTACTGGCGAGTTTGAGGCCGAGGAGGTGTATTTA
DNA 2: TAAATACACCTCCTCGGCCTCAAACTCGCCAGTACAAGGTACTTCATTTGAAGATTTAAACCTTTACTGTGCGGCATTACAATTATTAATTATAAAATAT
B4: Pr118 (dsDNA)
DNA 1: AACCCGTCATATGGCTTGAGTTTATACTCAAGCTTTTTTTATTGGTATATTTATATATATAAATAATTTAATATAATCAAAATGATGGGGGTATGTTACA
DNA 2: TGTAACATACCCCCATCATTTTGATTATATTAAATTATTTATATATATAAATATACCAATAAAAAAAGCTTGAGTATAAACTCAAGCCATATGACGGGTT
B5: Pr119 (dsDNA)
DNA 1: TTTCAACCACTCCTCTTAGTTTGATTTGGTAAGTTTAGGTCGGTATTTATTATATAATATAAATGAAACATTATATAATGGAAAAATTTCCCAGTAAACT
DNA 2: AGTTTACTGGGAAATTTTTCCATTATATAATGTTTCATTTATATTATATAATAAATACCGACCTAAACTTACCAAATCAAACTAAGAGGAGTGGTTGAAA
B6: Pr46 (dsDNA)
DNA 1: TTTTTTTATTTATAAACATTATTAAAAAAATATAGATGTTTTGGTTATATTCCTTGTCCTTTATAAATAGAATTATATAAACAAAGGAGGAGGACAAGAG
DNA 2: CTCTTGTCCTCCTCCTTTGTTTATATAATTCTATTTATAAAGGACAAGGAATATAACCAAAACATCTATATTTTTTTAATAATGTTTATAAATAAAAAAA
B7: Pr27 (Pobg) (dsDNA)
DNA 1: ATACATAAAAGGAGTGTTGAGGCACTCCTTTTTCTTATAATACTGATGAATTTATAATGGTATTTTTGGTAATGCTAATTAAAAGTTTTTAATTAAGTAG
DNA 2: CTACTTAATTAAAAACTTTTAATTAGCATTACCAAAAATACCATTATAAATTCATCAGTATTATAAGAAAAAGGAGTGCCTCAACACTCCTTTTATGTAT

One data set addresses cdPadR1 (Clostridium difficile R20291, UniProt A0A9R0CDW8 1-109). The data set can be described thus: EMSA; no significant binding; EMSA: 20 mM Tris pH 8.0, 120 mM KCl, 12.5% glycerol, 10 mM MgCl2, 5 mM DTT, 125 ug/mL heparin (400 ug/mL in competition), room temperature; 8% PAGE in TB. Particulars: protein: recombinant; tags: N-terminal Strep II; chain copies: 2; blunt.
For B1, the binding result is listed as “no binding”.

A further data set shares this target. The data set can be described thus: EMSA; 20 mM Tris pH 8.0, 120 mM KCl, 10 mM MgCl2, 5 mM DTT, 12.5% glycerol, 125 ug/mL heparin, room temperature. Conditions: protein: recombinant; tags: N-terminal Strep II; chain copies: 2. On the technique in general: Mobility shift assays separate free from complexed probe on a gel.
As for B2, the binding result is reported as “no binding”.
Regarding B3, the binding result is listed as “no binding”.
In the case of B4, the binding result is reported as “binds”.
As to B5, the binding result is listed as “binds”.
Still for that read-out and setting: then B6, with “binds”; and B7, with “binds”.
